Biological target: the molecule itself
Assay: native gel or EMSA; total protein extracts of transfected HEK293T cells on an 8% PAA-gel under non-denaturing conditions, Western blot with an anti-NR2E3 antibody

B1: human NR2E3 wild-type protein (pcDNA3.1/HisC-hNR2E3) (natural protein)
chain: not shown
notes: NR2E3 (PNR), photoreceptor-specific nuclear receptor, human, SwissProt Q9Y5X4; band of 45 kDa on the denaturing gel; also called PNR; pcDNA-NR2E3-His/C; source: HEK293T, transiently transfected, in lysate
For B1, the “stoichiometry N” value was 2.
